These are literature values, as cited in article PMC2884063.

The data set concerns the target Importin β (Homo sapiens) (UniProt Q14974).
UniProt Q14974, sequence (Q14974 whole entry): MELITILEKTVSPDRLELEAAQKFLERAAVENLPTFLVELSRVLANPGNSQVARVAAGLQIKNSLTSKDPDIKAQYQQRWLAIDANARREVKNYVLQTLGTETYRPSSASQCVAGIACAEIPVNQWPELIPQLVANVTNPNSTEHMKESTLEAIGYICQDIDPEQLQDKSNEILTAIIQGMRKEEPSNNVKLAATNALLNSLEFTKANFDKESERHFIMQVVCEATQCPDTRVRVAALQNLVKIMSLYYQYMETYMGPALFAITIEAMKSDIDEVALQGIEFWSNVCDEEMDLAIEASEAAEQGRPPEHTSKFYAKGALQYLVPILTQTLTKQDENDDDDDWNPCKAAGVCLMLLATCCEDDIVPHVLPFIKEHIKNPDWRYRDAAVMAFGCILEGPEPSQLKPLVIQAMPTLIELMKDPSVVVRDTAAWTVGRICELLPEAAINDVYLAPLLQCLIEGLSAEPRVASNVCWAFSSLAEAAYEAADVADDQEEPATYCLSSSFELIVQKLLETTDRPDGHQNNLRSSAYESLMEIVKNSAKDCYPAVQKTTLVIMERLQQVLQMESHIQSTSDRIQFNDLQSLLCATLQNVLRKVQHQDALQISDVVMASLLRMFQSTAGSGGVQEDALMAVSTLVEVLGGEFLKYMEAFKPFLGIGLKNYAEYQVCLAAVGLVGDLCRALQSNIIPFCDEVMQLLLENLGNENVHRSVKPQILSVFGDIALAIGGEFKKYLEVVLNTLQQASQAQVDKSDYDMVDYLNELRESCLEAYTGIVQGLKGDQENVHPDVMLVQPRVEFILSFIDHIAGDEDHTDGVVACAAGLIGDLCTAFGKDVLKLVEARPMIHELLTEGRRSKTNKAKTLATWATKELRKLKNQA

The term Kd denotes the concentration at which binding is half-saturated. For “Snp1 (snurportin 1) IBB (from UniProt O95149)”, the Kd is 2 nM.
